From PMC9426524

Substrate: CC(=O)C=O
Experiment: purified protein

B1: (Homo sapiens) (protein)
chain: MASKRALVILAKGAEEMETVIPVDVMRRAGIKVTVAGLAGKDPVQCSRDVVICPDASLEDAKKEGPYDVVVLPGGNLGAQNLSESAAVKEILKEQENRKGLIAAICAGPTALLAHEIGFGSKVTTHPLAKDKMMNGGHYTYSENRVEKDGLILTSRGPGTSFEFALAIVEALNGKEVAAQVKAPLVLKD
For B1, the Km was 340 ± 40 µM and the kcat was 0.126 ± 0.004 s⁻¹.
